Experiment [1] concerns the target C3-C3b receptor (human (endogenous in Raji, Daudi and HPL)). Description: immunostaining of cells or tissue.
Experiment [2] shares this target. Description: immunostaining of cells or tissue. This is another data set of the same source.
Experiment [3] shares this target. The experiment in a line: rosette formation.
For experiment [4], the target named is human C3b (human) (UniProt P01024). Description: immunostaining of cells or tissue.
Experiment [5] has the same target. Description: immunostaining of cells or tissue. The source holds these as a separate data set.
Experiment [6] shares this target. Description: immunostaining of cells or tissue. The source holds these as a separate data set.
Experiment [7] has the same target. The experiment in a line: immunostaining of cells or tissue. This is another data set of the same source.
Experiment [8] has the same target. Description: immunostaining of cells or tissue. The source holds these as a separate data set.
For experiment [9] the target is unchanged. The experiment in a line: immunostaining of cells or tissue. This is another data set of the same source.

Where “and” joins values, the source holds several entries; their conditions need not be identical. Identical values can stand only once. Like-named read-outs stand apart in the source and are kept apart here.

Sequence of UniProt P01024 (P01024 23-667, chain 1 of 2): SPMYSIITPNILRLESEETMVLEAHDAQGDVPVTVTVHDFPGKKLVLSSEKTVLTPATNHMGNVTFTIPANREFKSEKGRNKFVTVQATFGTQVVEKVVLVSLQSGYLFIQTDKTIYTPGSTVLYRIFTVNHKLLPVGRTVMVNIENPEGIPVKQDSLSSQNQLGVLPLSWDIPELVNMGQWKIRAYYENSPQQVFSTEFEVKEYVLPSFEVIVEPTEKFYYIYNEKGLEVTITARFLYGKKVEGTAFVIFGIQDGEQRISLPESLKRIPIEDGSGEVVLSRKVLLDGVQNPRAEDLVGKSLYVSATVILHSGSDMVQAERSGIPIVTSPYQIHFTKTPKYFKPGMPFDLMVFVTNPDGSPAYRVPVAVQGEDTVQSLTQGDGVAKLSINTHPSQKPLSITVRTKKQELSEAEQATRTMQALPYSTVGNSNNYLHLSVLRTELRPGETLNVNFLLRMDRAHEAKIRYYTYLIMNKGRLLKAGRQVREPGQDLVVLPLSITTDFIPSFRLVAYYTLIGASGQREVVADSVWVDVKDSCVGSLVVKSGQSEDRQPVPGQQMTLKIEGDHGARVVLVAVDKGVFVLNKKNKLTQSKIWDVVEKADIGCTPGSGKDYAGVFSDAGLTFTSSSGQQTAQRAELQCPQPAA
Sequence of UniProt P01024 (P01024 749-1663, chain 2 of 2): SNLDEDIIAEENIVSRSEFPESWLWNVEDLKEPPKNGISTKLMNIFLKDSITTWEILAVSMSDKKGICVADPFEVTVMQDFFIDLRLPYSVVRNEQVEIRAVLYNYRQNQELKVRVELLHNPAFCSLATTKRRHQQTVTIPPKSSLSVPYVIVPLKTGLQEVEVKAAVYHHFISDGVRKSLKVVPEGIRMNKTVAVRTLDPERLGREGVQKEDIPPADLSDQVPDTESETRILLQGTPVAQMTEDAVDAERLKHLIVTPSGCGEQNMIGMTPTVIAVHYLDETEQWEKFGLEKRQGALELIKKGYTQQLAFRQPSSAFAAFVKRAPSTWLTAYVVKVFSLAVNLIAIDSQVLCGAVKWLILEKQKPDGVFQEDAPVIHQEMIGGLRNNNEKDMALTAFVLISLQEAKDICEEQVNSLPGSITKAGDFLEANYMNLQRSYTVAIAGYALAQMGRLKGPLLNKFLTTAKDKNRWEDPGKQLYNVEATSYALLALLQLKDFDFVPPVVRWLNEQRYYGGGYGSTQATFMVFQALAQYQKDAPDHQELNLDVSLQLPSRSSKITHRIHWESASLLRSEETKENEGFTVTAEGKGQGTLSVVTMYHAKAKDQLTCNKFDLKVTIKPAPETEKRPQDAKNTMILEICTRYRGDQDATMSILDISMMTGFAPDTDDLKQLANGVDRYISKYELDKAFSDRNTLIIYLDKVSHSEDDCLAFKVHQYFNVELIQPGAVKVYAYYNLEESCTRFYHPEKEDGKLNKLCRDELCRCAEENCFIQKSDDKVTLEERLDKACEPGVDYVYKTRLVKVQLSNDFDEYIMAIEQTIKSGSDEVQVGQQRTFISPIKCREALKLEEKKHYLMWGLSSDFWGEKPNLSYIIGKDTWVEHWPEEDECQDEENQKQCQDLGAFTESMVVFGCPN

In experiment [1], “human complement component C3 (from UniProt P01024 23-667; P01024 672-1663) (natural protein)” yielded a percent cells binding of 90% and a percent immunofluorescence positive cells of 100%. In [2], this substance returned a percent cells binding of 100% and a percent immunofluorescence positive cells of 100%.
As to “human C3b (from UniProt P01024 23-667; P01024 749-1663) (domain or fragment)”, the percent cells binding in [1] was found to be 90%. Also, the percent rosette-forming cells in experiment [3] is 100% and 98%. In [2], this substance came in with a percent cells binding of 100% and a percent immunofluorescence positive cells of 98%.
For factor B (natural protein), the percent immunofluorescence positive cells in experiment [4] was found to be 93%; in experiment [5], 95%; in experiment [6], 2%; in [7] it was 5%; in experiment [8], 5%; in experiment [9] it was 89%.

(Values after article PMC2190117.)
